In publication PMC7145534, “Are the intrinsically disordered linkers involved in SSB binding to accessory proteins?” (Nucleic Acids Research, 2019):
Entries after “also recorded” stand apart in the source; their conditions may differ.

Assays:
RecO = settings: for sedimentation coefficient, SSB alone: 0.35 μM tetramer, BTP pH 7.0, 200 mM NaCl, 25°C, no RecO
Protocol: Sedimentation velocity experiments were performed with an Optima XL-A analytical ultracentrifuge and An50Ti rotor (Beckman Coulter, Fullerton, CA, USA) at 42 000 rpm (25°C) as described ([50]). The concentrations used were 1–2 μM SIPs, 0.3–0.5 μM SSB tetramers, while monitoring absorbance at 230 or 280 nm. The experiments with SSB-Ct peptides were performed in Buffer BTP at pH 8.0 and 50 mM NaCl. The experiment with SSB proteins and the deletion constructs were performed in Buffer BTP at pH 7.0 and 200 mm NaCl. The sample (380 μl) and buffer (394 μl) were loaded into each sector of an Epon charcoal-filled two-sector centerpiece. Absorbance data were collected by scanning the sample cells at intervals of 0.003 cm. Data were analyzed using SEDFIT, to obtain c(s) distributions ([70]). The c(s) distribution function defines the populations of species with different sedimentation rates and represents a variant of the distribution of Lamm equation solutions ([70]). The density and viscosity of the experimental buffers at 25°C were determined using [sequence] […] The partial specific volume of (dT)70 used was 0.56 ml/g. In the experiments involving more than one species, the partial specific volumes of complexes were calculated assuming additivity using Equation (4), where = number of moles of species ‘i’, = molecular weight of species ‘i’, and = partial specific volume of each species i.(4)
RecO binding to SSB tetramers with portions of the IDL deleted. […] (C) The results of sedimentation velocity experiments, plotted as the c(s) distribution ([70]) for each SSB construct (0.35 μM tetramer) in the absence (black lines) and presence (red lines) of 2.5 molar excess of RecO (3.5 μM) per C-terminus.

E. coli RecO = assay: ITC of SSB tetramers (apo) binding to RecO; set-up: species or system Escherichia coli; settings: apo, 25°C
Protocol: The concentrations were determined thereafter.

(dT)70 = assay: ITC of SSB tetramers with (dT)70; format: binding; settings: BTP pH 7.0, 200 mM NaCl
Protocol: Isothermal titration calorimetry (ITC) experiments were performed using a VP-ITC titration microcalorimeter (Malvern Panalytical, Malvern, UK) ([68]). All proteins and oligonucleotides were dialyzed extensively against the indicated buffer and cleared by centrifugation at 14 000 rpm for 15 min at 4°C. The concentrations were determined thereafter. For experiments with the SSB-Ct peptides and SIPs, 40–50 μM peptides were titrated into 1–2 μM SIPs in Buffer BTP at pH 8.0 and 50 mM NaCl. For experiments with the full-length SSB and its deletion mutants and SIPs, SSB tetramer (8–10 μM) was titrated into SIP (1 μM) in Buffer BTP at pH 7.0 and 200 mM NaCl. The heats of dilution were obtained by blank titrations in which the titrant species is titrated into the buffer, and corrections for heats of dilution were applied.
(dT)70 and wtSSB. (a) SSB-A (10 µM), a homo-tetrameric SSB variant containing an
additional six amino acids, TGASGT, at the C-terminus of each subunit, was titrated into
RecO (1 µM) in buffer BTP (pH 7.0, 200 mM NaCl) at 15° C and (b) 25° C.
(5.9 µM) was titrated into c (1 µM) in buffer T (10 mM Tris-HCl, pH 8.1, 200 mM NaCl,
0.1 mM EDTA) at 25° C. […] (d) dT70 (60 µM) was
(e) (dT)70 (15 µM) was titrated into SSB-A (1 µM) in buffer T at 25° C.
(f) (dT)70 (15 µM) is titrated into

[1] = target: Escherichia coli PriC (E. coli) (UniProt P23862); assay: AUC; sedimentation velocity, 42 000 rpm, 25°C; PriC at 2 μM, without and with 30-fold excess P15; buffer BTP pH 8.0, same conditions as the ITC of PriC
DNA Pol III (χ) = settings: cited from earlier work
Excerpt: When DNA is bound to the DBD, the acidic tip no longer interacts with the DBD and thus is more available to interact with a SIP. This is supported by the observation that ΔH = −6.0 ± 0.1 kcal/mol for RecO binding to the SSBΔ120-166–(dT)70 complex, which should not contain contributions from the acidic tip-DBD intramolecular interactions.

PriA = settings: previous study; cited from earlier work
Protocol: All binding reactions were performed under identical solution conditions, although additional experiments were performed at a lower [NaCl] for PriC as indicated, ...

[2] = target: T1, Escherichia coli RecO protein (E. coli, UniProt P0A7H3 1-242); assay: ITC; P15 and RecO; buffer BTP pH 8, 200 mM NaCl, 25°C; N fixed to 1; settings: both partners purified
T1 construct: E. coli RecO, recombination mediator of the RecF pathway; source: E. coli BL21(DE3)pLysS, plasmid pMCSG7, purified (Ni-NTA, HiTrap Heparin HP) after His-tag cleavage with TEV protease
T1 sequence (looked up): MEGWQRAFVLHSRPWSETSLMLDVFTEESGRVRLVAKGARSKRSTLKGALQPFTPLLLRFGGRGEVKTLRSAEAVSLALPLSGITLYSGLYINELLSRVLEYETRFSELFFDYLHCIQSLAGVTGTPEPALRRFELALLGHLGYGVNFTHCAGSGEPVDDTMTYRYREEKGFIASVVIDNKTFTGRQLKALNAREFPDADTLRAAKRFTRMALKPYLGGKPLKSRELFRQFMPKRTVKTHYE

[3] = target: T1, Escherichia coli RecO protein; assay: ITC; P15 and RecO; buffer BTP pH 7.0, 200 mM NaCl, 37°C; N fixed to 1; settings: both partners purified
Escherichia coli PriC [4] = target: T2, Escherichia coli PriC (E. coli, UniProt P23862 1-175); assay: ITC; SSB-Ct peptide titrated into PriC; buffer BTP pH 8.0, 10 mM NaCl, 25°C; N fixed to 1 for the values of Table 1; settings: both partners purified
T2 construct: E. coli PriC, replication restart protein; source: E. coli BL21(DE3), plasmid pET11a-EcoPriC (pAM001), purified (Macro-Prep High S, HiPrep Sephacryl S-200 HR)
T2 sequence (looked up): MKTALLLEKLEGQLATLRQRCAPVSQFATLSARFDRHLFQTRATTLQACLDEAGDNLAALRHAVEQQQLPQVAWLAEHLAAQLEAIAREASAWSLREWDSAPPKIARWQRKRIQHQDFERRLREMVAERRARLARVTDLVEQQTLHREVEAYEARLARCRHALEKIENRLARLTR

Escherichia coli PriA [5] = target: T3, Escherichia coli PriA (E. coli, UniProt P17888 1-732); assay: ITC; SSB-Ct peptide (40–50 μM) titrated into SIP (1–2 μM); buffer BTP (20 mM Bis-Tris Propane, 25% glycerol, 1 mM TCEP) pH 8.0, 50 mM NaCl, 25°C; observed association constants; N fixed to 1 for the values of Table 1; settings: both partners purified
T3 construct: E. coli PriA, replication restart protein

[6] = target: T1, Escherichia coli RecO protein; assay: as above; settings: both partners purified
[7] = target: T4, chi (χ) subunit of DNA polymerase III (E. coli, UniProt P28905 1-147); assay: as above; settings: both partners purified
T4 construct: E. coli DNA polymerase III chi subunit; also called χ protein; DNA Pol III (χ)

[8] = target: T1, Escherichia coli RecO protein; assay: ITC; P15 and RecO; buffer BTP pH 7.0, 200 mM NaCl, 15°C; N fixed to 1; settings: both partners purified
Escherichia coli PriC [9] = target: T2, Escherichia coli PriC; assay: ITC; SSB-Ct peptide titrated into PriC; buffer BTP pH 8.0, 10 mM NaCl, 25°C; N fixed to 1 for the values of Table 1; settings: both partners purified; remark: listed apart in the source
[10] = target: T1, Escherichia coli RecO protein; assay: ITC; P15 and RecO; buffer BTP pH 7.0, 200 mM NaCl, 25°C; N fixed to 1; settings: both partners purified
Escherichia coli PriA [11] = target: T3, Escherichia coli PriA; assay: ITC; SSB-Ct peptide (40–50 μM) titrated into SIP (1–2 μM); buffer BTP (20 mM Bis-Tris Propane, 25% glycerol, 1 mM TCEP) pH 8.0, 50 mM NaCl, 25°C; observed association constants; N fixed to 1 for the values of Table 1; settings: both partners purified; remark: listed apart in the source
[12] = target: T1, Escherichia coli RecO protein; assay: as above; settings: both partners purified; remark: listed apart in the source
[13] = target: T4, chi (χ) subunit of DNA polymerase III; assay: as above; settings: both partners purified; remark: listed apart in the source
[14] = target: the molecule itself; assay: AUC; sedimentation velocity, 42 000 rpm, 25°C; SSB construct 0.35 μM tetramer alone and with 3.5 μM RecO (2.5 molar excess per C-terminus); buffer BTP pH 7.0, 200 mM NaCl
[15] = target: Escherichia coli RecO protein (E. coli) (UniProt P0A7H3); assay: ITC; SSB tetramer–(dT)70 complex (9–10 μM) titrated into RecO (1 μM); buffer BTP pH 7.0, 200 mM NaCl, 25°C; N fixed to 4, K and ΔH per C-terminus
[16] = target: Escherichia coli RecO protein (E. coli) (UniProt P0A7H3); assay: ITC; apo SSB tetramer (9–10 μM) titrated into RecO (1 μM); buffer BTP pH 7.0, 200 mM NaCl, 25°C; N fixed to 4 RecO per tetramer, K and ΔH per C-terminus
[17] = target: Escherichia coli RecO protein (E. coli) (UniProt P0A7H3); assay: ITC; SSB tetramer (10 µM) titrated into RecO (1 µM); buffer BTP pH 7.0, 200 mM NaCl, 10°C; N floated, N = RecO per SSB tetramer; ΔH per C-terminus
[18] = target: Escherichia coli RecO protein (E. coli) (UniProt P0A7H3); assay: ITC; apo SSBΔ120-166 tetramer and RecO; 10°C; N fixed to 4 in Table 3
[19] = target: T1, Escherichia coli RecO protein; assay: ITC; SSB tetramer–(dT)70 complex (9–10 μM) titrated into RecO (1 μM); buffer BTP pH 7.0, 200 mM NaCl, 25°C; N fixed to 4, K and ΔH per C-terminus; settings: both partners purified
[20] = target: T1, Escherichia coli RecO protein; assay: ITC; apo SSB tetramer (9–10 μM) titrated into RecO (1 μM); buffer BTP pH 7.0, 200 mM NaCl, 25°C; N fixed to 4 RecO per tetramer, K and ΔH per C-terminus; settings: both partners purified

T3 sequence (P17888 whole entry): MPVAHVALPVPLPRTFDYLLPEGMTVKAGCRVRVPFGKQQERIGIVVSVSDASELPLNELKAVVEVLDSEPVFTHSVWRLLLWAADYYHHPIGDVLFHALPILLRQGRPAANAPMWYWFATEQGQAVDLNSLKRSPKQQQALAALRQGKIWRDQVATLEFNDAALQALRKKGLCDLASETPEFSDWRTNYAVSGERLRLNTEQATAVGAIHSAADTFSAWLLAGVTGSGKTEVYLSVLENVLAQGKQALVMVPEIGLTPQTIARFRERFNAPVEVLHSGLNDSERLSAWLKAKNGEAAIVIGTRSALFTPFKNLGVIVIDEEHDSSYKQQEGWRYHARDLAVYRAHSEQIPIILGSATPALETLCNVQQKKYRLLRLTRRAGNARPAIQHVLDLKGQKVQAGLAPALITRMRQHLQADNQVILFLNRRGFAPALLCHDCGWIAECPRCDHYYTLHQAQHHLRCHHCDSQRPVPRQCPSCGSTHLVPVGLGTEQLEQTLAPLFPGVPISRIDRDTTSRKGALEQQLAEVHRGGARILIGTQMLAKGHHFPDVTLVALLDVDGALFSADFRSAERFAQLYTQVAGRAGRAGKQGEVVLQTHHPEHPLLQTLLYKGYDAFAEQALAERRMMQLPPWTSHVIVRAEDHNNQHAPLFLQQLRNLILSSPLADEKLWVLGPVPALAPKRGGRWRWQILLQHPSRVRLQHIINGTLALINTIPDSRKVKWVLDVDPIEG
T4 sequence (P28905 whole entry): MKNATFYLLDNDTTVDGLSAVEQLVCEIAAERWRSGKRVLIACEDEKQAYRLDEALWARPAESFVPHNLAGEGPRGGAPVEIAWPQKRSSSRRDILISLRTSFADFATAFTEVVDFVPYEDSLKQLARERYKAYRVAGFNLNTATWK

Molecule: wtSSB: E. coli single strand DNA binding protein, homo-tetramer, wild type
- sedimentation coefficient, SSB alone (RecO): 1.4 S
- complex formation with RecO (RecO; 10-fold molar excess of RecO to SSB tetramer): RecO forms complexes with wtSSB
- K (E. coli RecO; BTP pH 7, 200 mM NaCl): (1.5 ± 0.2) × 10^6 M^−1
- binding to (dT)70 by ITC ((dT)70): binds stoichiometrically

Molecule: Escherichia coli PriC (from UniProt P23862 1-175) (natural protein)
- percent of the monomeric species [1]: 48.1%

Molecule: MDFDDDIPF [P9]
- affinity and ΔH for χ binding versus (dT)70-bound SSB (DNA Pol III (χ)): very similar
- binding to χ (DNA Pol III (χ); previous study): binds with specificity
- binding to PriA (PriA): binds with specificity

B1: SSB-Ct peptide P15 (C-terminal 15 amino acids of E. coli SSB) (peptide, UniProt P0AGE0 164-178, looked up)
peptide: PSNEPPMDFDDDIPF
notes: E. coli SSB, the C-terminal 15 amino acids; Holds none of the PXXP motifs; also called acidic tip peptide; source: synthetic peptide; bought: WatsonBio
- dH [2]: -3.9 ± 0.1 kcal/mol
- dH [3]: -7.8 ± 0.8 kcal/mol
- stoichiometry N (Escherichia coli PriC [4]): 1
- dH (Escherichia coli PriA [5]): -9.6 ± 0.3 kcal/mol
- dH [6]: -5.2 ± 0.1 kcal/mol
- dH [7]: -9.3 ± 0.1 kcal/mol
- dH [8]: -2.4 ± 0.2 kcal/mol
- dH (Escherichia coli PriC [9]): -2.7 ± 0.1 kcal/mol
- dH [10]: -6 ± 0.2 kcal/mol
- stoichiometry N (Escherichia coli PriA [11]): 1
- stoichiometry N [12]: 1
- stoichiometry N [13]: 1

B2: SSBΔ120-166 tetramer (natural protein, E. coli, UniProt P0AGE0 1-178, looked up)
chain: MASRGVNKVILVGNLGQDPEVRYMPNGGAVANITLATSESWRDKATGEMKEQTEWHRVVLFGKLAEVASEYLRKGSQVYIEGQLRTRKWTDQSGQDRYTTEVVVNVGGTMQMLGGRQGGGPPMDFDDDIPF
notes: E. coli SSB with residues 120-166 of the IDL deleted, acidic tip kept; All three PXXP motifs deleted; only nine residues of the IDL left; Used apo and in complex with (dT)70
- stoichiometry N [14]: 4
- sedimentation coefficient, SSB alone (RecO): 1.3 S
- dH (per tip, ΔH/4) [15]: -6 kcal/mol
- K (observed association equilibrium constant) (E. coli RecO; BTP pH 7.0, 200 mM NaCl, N fixed to 4): Not detected
- RecO binding detected by ITC (E. coli RecO; pH 7.0, 200 mM NaCl): undetectable; also recorded: could not be detected
- dH (per tip, ΔH/4) [16]: 0 kcal/mol
- Ka [17]: 373000 M⁻¹
- stoichiometry N [17]: 4.03
- Ka [18]: 370000 M⁻¹
- dH (per tip, ΔH/4) [18]: -8.1 kcal/mol

B3: SSBΔ130-166 tetramer (natural protein, E. coli, UniProt P0AGE0 1-178, looked up)
chain: MASRGVNKVILVGNLGQDPEVRYMPNGGAVANITLATSESWRDKATGEMKEQTEWHRVVLFGKLAEVASEYLRKGSQVYIEGQLRTRKWTDQSGQDRYTTEVVVNVGGTMQMLGGRQGGGAPAGGNIGGGPPMDFDDDIPF
notes: E. coli SSB with residues 130-166 of the IDL deleted, acidic tip kept; All three PXXP motifs deleted; Used apo and in complex with (dT)70
- stoichiometry N [14]: 4
- dH (per tip, ΔH/4) [19]: -4.5 ± 0.1 kcal/mol
- dH (per tip, ΔH/4) [20]: -2.3 ± 0.1 kcal/mol

B4: SSBΔ151-166 tetramer (natural protein, E. coli, UniProt P0AGE0 1-178, looked up)
chain: MASRGVNKVILVGNLGQDPEVRYMPNGGAVANITLATSESWRDKATGEMKEQTEWHRVVLFGKLAEVASEYLRKGSQVYIEGQLRTRKWTDQSGQDRYTTEVVVNVGGTMQMLGGRQGGGAPAGGNIGGGQPQGGWGQPQQPQGGNQFSGGPPMDFDDDIPF
notes: E. coli SSB with residues 151-166 of the IDL deleted, acidic tip kept; Two C-terminal PXXP motifs deleted; Used apo and in complex with (dT)70
- stoichiometry N [14]: 4
- sedimentation coefficient, SSB alone (RecO): 1.4 S
- dH (per tip, ΔH/4) [19]: -8.7 ± 0.1 kcal/mol
- dH (per tip, ΔH/4) [20]: -7 ± 0.1 kcal/mol
